Test results: the nanobody polyreactivity screen of Harvey et al. (2022)

Assay: yeast display, Sf9 membrane polyspecificity reagent, FACS + sequencing; frameworks hold sequencing errors
In short: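 In a synthetic yeast display library (Saccharomyces cerevisiae BJ5465), nanobody expression was induced with galactose for 36–48 hours. FACS gates were set low and high (top ~1%) using anti-HA fluorescence for expression and streptavidin fluorescence for binding of the Sf9 membrane reagent. Each polyreactivity label is drawn from the gate of origin.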

Row | Sequence | polyreactivity (PSR sort gate)
1 | QVQLVESGGGLVQAGGSLRLSCAASGLTFKSYAMGWYRQAPGKERELVAAISWRGGRTYYADSVKGRFTISRDNAKNTVYLQMNSLKPEDTAVYYCNARSQQWWLSRYNYWGQGTQVTVSS | high polyreactivity
2 | QVQLVESGGGLVQAGGSLRLSCAASGRTFCLNAMGWYRQAPGKERELVAAISKSDDSTYYADSVKGRFTISRDNAKNTVYLQMNSLKPEDTAVYYCNADYYGWWYDTDYIGGYDYDYWGQGTQVTVSS | low polyreactivity
3 | QVQLVESGGGLVQAGGSLRLSCAASGRTFNVNVMGWYRQAPGKERELVAAIRYNGGSTYADSVKGRFTISRDNAKNTVYLQMNSLKPEDTAVYYCNADTFFPFEHGMDYWGQGTQVTVSS | low polyreactivity
4 | QVQLVESGGGLVQAGGSLRLSCSASGSIFRYNAMGWYRQAPGKERELVAGITSGGSTNYADSVKGRFTISRDNAKNTVYLQMNSLKPEDTAVYYCATGTRSYYRWWRLMNYWGQGTQVTVSS | high polyreactivity
5 | QVQLVESGGGLVQAGGSLRLSCAASGSTFGYYAMGWYRQAPGKERELVAAISYSGGSTYYADSVKGRFTISRDNAKNTVYLQMNSLKPEDTAVYYCAARLTRQMYYWGQGTQVTVSS | high polyreactivity
6 | QVQLVESGGGLVQAGGSLRLSCAASGSIFTPNVMGWYRQAPGKERELVAAISQSGGSTFYADSVKGRFTISRDNAKNNVYLQMNSLKPEDTAVYYCAADPFYYFPSPFDYWGQGTQVTVSS | low polyreactivity
7 | HVQLVESGGGLVQAGGSLRLSCAASGIIFIGNAMGWYSQAPGKERELVAAISRRGGRTYYADSVKGRFTISRDNAKNTVYLQMNSLKPEDTAVYYCNAEISVNDDDYWGQGTQVTVSS | high polyreactivity
8 | QVQLVESGGGLVQAGGSLRLSCAASGSIFKQNAMGWYRQAPGKERELVASIRASGDRTYYADSVKGRFTISRDNAKNTVYLQMNSLKPEDTAVYYCAARRVRTRGYNYWGQGTQVTVSS | high polyreactivity
9 | QVQHVESGGGLVQAGGSLRLSCAASGIIFGHYDMGWYRQAPGKERELVAAITFTGDSTYYADSVKGRFTISRDNAKITVYLQMNSLKPEDTAVYFCAADTPVPWGSWGYDYWGQGTQVTVSS | low polyreactivity
10 | QVQLVESGGGLVQAGGSLRLSFAASGNIFTFNAMGLYRQATGKDRELDAAIRSGGSTNYADSVKGRFTISRDNAKNTVDLQMNSLKPEDTAVYYCAAKRYVQGYVYRYGYWGQGTQVTVSS | high polyreactivity
11 | QVQLVESGGGLVQAGGSLRLSCAASGRIFYSYAMGWYRQAPGKERELVAAITESGGSTNYADSVKGRFTISRDNAKNTVYLQMNSLKPEDTEVYYCNARYKLTFNLYNYWGQGTQETVSS | low polyreactivity
12 | QVQLVESGGGLVQAGGSLRLSCAASGRIPAYAMGWYRQAPWKERELVAAITWSGGSTYYADSVKGRFTISRDNAKNTVYLQMISLKPEDTSVDYCAAKQWGRYGYWGKGTQVTVSS | high polyreactivity
13 | QVQLVESGGGLVQAGGSLRLSCAASGSIFGFNAMGWYRQAPGKERELVAAINNGGSTNYADSVKGRFTISRDNAKNTVYLQMNSLKPEDTAVYYCAARLNYIRRGYWGQGTQVTVSS | high polyreactivity
14 | QVQLVESGGGLVQAGGSLRLSCAASGSTFYINALGGYRQAPGTERELVAAITWNSDSTYYADSVKGRFTISRDNAKNTVYLQMNSLKPEDTAVYYCNKDRIIWGRLYEEGDYWGQGTQVTVSS | low polyreactivity
15 | QVQLVESGGRLVQAGGSLRLSCAASGSILTSYPMGWNRQAPGKERELVAAISTTGGSTYYADSVKGRFTISRDNAKNTVYLQMNSLKPEDTAVYYCAKASGSGGEMDYWGQGTQVTVSS | low polyreactivity
16 | QVQLVESGGGLVQAAGSLRLSCAPSGSIYNYTIGWYRQAPGKERELVAAISRSGTRTYYADSVKGRFTISRDNAKNTVYLQMNSLKPEDTAVYYCAARILPPGDNVDDDYWGQGTQVTVSS | high polyreactivity
17 | QLQLVESGGGLVQAGGSLRLSCAASGSISAVNTMGWYRQAPRKERELVATISYSTASTYYADSVKGRFTISRDNAKITVYLQINSRKPEDTAFYYCNKDGRRYAYNSEYDHWGQGTQVTVSS | low polyreactivity
18 | QVQLVESGGGLVQAGGSLRLSCAASGSIFHWYAMGWYRQAPGKERELVAAINWSGGSTYYADSVKGRFTISRDNAKNTVYLQMNSLKPEDTAVYYCNKAYVSRYDYWGQGTQVTVSS | high polyreactivity
19 | QVQLVESGGGLVQAGGSLRLSCAASGRTFPAYAMGWYRQAPGKERELVAAISRGGSTYYADSVKGRFTISRDNAKNTVYLQMNSLKPEDTAVYYCAARYSYYRQGDSWYNYNYWGQGTQVTVSS | high polyreactivity
20 | QVQLVESGGGLVQAGGSLRLSCAASGRTFYFNGMGWYRQAPGKERELVATITASGTITYYADSVKGRFTISRDNAKNTVYLQMNSLKPEDTAVYYCAARQRGYYYSRSYDYWGQGTQVTVSS | high polyreactivity
21 | QVQVVESGGGLVQAGGSLRLSCAASGFISSYYAMGWYRQAPGKERELVAAITSGGRTYYADSVKGRFTISRDNAKNTVYLQMNSLKPEDTAVYYCAKYSRTKAFDYWGQGTQVTVSS | high polyreactivity
22 | QVQLVESGGGLVQAGGSLRLSCAASGSIFRVYAMGWYRQAPGKERELVAGISSRGGTSTYYADSVKGRFTISRDNAKNTVYLQMNSLKPEDTAVYYCAVQVRYPGYDYWGQGTQVTVSS | low polyreactivity

Row | Sequence | polyreactivity (PSR sort gate)
23 | QVQLVESGGGLVQAGGSLRLSCADSGSTFVNYAMGWYRQAPGKERELVAAISSTGGSTYYADSVKGRFTISRDNAKNTVYLQMNSLKPEDTAVYYCAAYRYFKMGYWGQGTQVTVSS | high polyreactivity
24 | QVQLQESGRGLVQAGGSLRLSCAASGTISSRWGKGWYLQAPGKERELFASNDQGASTYYADSVKGRFTISRDNAKNTVYLQMNSLKPEDTEVYYCIAVPSSAGDYWGQGTQVTVSS | low polyreactivity
25 | QVQLVESGGGLVQAGGSLRLSCAAYGSTFSTYAMGWYRQAPGKEREMVAAITLSSGRTTYADSVKGRFTISRDNAKNTVYLQMNSLKPEDTAVYYCNAYYGAAFTYWDYYWGQGTQVTVSS | low polyreactivity
26 | QVQLVESGGGLVQAGGSLRLSCGASGRIFNSNAMGWYRQAPGKERELVAASSWSGGTSYYADSVKGRFTISRDNAKNTVYLQLNSLKPEDTAVYYCNAVGLHWWPGDYWGQGTQVTVSS | low polyreactivity
27 | QVQLVESGGGLVQAGGSLRLSCAASGSIFDTNAMGWYRQAPGKERELVAAISFSGVRTYYADSVKGRFTISRDNAKNTVYLLMNSLKPEDTAVYYCNRLRISPGWRYNYWGQGTQVTVSS | high polyreactivity
28 | QVQLVESGGGLVQAGGSLRLSCAASGFTISRYAMGWYRQAPGKERELVAAITWSGVSTYYADSVKGRFTISRDNAKNTVYLQMNSRKPEDTAVYYCAATTYSSSSSHDYWGQGTQVTVSS | low polyreactivity
29 | QVQLVESGGGLVQAGGSLRLSCAASGSTFYSYAMGWYRQAPGKERELVAAIDWSGDNTNYADSVKGRFTISRDNAKNTVYLQMNSLKPEDTAVYYCAAVYSYYRLYAYPAYYYWGQGTQVTVSS | low polyreactivity
30 | QVQLVESGGGLVQAGGSLRLSCAASGRTFPYYAMGWYRQAPGKERELVAAISSSGGRTYYADSVKGRFTISRDNAKNTVYLQMNSLKREDTAVYYCNVDAWYPYQGFLVGYYYWGQGTQVTVSS | low polyreactivity
31 | QVQLVESGGGLVQAGGSLGLSCAASGSIFTNYAMGWYRQAPGKERELVAAISVGGGRTYYADSVKGRFTISRDNAKNTVDLQMNSLKPEDTAVYYCAARYPFGSLGRYGYWGQGTQVTVSS | high polyreactivity
32 | QVQLVESGGGLVQAGGSLRLSCAASGSIFKQNTMGWYRQAPGKEREFVAAISSGGSTYYADSVKGRFTISRDNAKNTVYLQMNSLKPEDTAVYYCAKYYDWDYYLPLEGDYWGQGTQVTVSS | low polyreactivity
33 | QVHLVESGGGLVQAGGSLRLSCAASGFTFVFYTMGWYRPAPGKERELVAAISHTGDSTYYADSVKGRFTISRDNAKNTVYFQMNSLKPEDTAVYYCATDLYTADPDPSPTYKFEYWGQGTQVTVSS | low polyreactivity
34 | QVHLVESGGGLVQAGGTLRLSCAASGLFARNAMGWYRQAPGKERELVAAINRSGGSTYYADSVKGRFTISRDNAKNTVYLQMNSLKPEDTAVYYCNKAFTHTKDRSPIAYEYGYWGQGTQVTVSS | low polyreactivity
35 | HGQLVESGGGLVQAGGSLRLSCAASGITFTPKDMGWYREAPGKERELVAAISSSDGTTYYADSVTGRFTSSRDNAKNTVYLQMNSLKPEDTAVYYCAAEYYYSPAYDYYSGFKTLYYDWGQGTQVTGSS | high polyreactivity
36 | QVQLVESGGGLVQAGGSLRLSCAASGIIFGEYPMGWYRQAPGKERELVAAISWSGGSTYYADSVKGRFTISRDNAKNTVYLQMNSLKPEDTAVYYCNPLPDIVIGGIIGYDYWGQGTQVTVSS | high polyreactivity
37 | QVQLVESGGGLVQAGGSLRLSCAASGSTLIVYAMGWYRQAPGKEREFVAGITVSTGSTYYADSVKGRFTISRDNAKNTVYLQMNSQKPEDTAVYYCAADIRDGWDYFLFWEDGMDYSGQGTQVTVSS | low polyreactivity
38 | QVQLVESGGGLVQAGGSLRLSCAASGFTFITNAMGWYRQAPGNERELVASISIGGSTNYADSVKGRFTISRDNAKNTVYLQMTSLKPEDTAVYYCAARVYRRLFLPGRYGRPLGYWGQGTQVTVSS | high polyreactivity
39 | QVQLVESGGGLVQAVGRLRLSCAASGRTFYYNGMGWYRQAPGKERELVAAISSGGTTSYADSVKGRFTISRDNAKNTVYLQMNSLKPEDTAVYYCNVYDKAPAYDYWGQGTQVTVSS | low polyreactivity
40 | QVQLVESGGGLVQAGGSLRLSCAASGSTFDFYAMGWYRQAPGKERELVAAISWSAGSTYYADSVKGRFTISRDIAKNTVYLQMNSLKPEDTAVYYCNADYWGQGTQVTVSS | low polyreactivity
41 | QVQLVESGGGLVQAGGSLRLSCAASGFIFYPYAMGWYRQAAGKERELVASIRRSTASTYYADSVKGRFTISRDNAKNTVYLQMNSLKPEDTAVYYCAARYRSYPKEYDYWGQGTEVTVSS | high polyreactivity
42 | QVQLVESGGGLVQAGGSLRLSCAASGSIFSYYTMGWYRPAPGKERELVAAISYSGGRTYYADSVKGRFTISRDNAKNTVYLQMNSLKTEDTAVYYCSAKLLQLRGRGYEYWGQGTQVTVSS | high polyreactivity
43 | QVQLVESGGGLVQAGGSLRLSCAASGSTFYQYAMGWYRQAPGKERELVAAITGSGTRTYYADSVKGRFTISRDNAKNTVYLQMNSLKPEDTAVYYCAAQKYYQGYNYWGQGTQVTVSS | high polyreactivity
